The values below come from PMC9166294, “Patched 1 regulates Smoothened by controlling sterol binding to its extracellular cysteine-rich domain” (Science Advances, 2022).

In test [1] the target is T1, PTCH1 (Patched 1) (Mus musculus, UniProt Q61115).
T1 construct: full-length PTCH1-WT with C-terminal 1D4 tag
T1 sequence (Q61115 1-1434): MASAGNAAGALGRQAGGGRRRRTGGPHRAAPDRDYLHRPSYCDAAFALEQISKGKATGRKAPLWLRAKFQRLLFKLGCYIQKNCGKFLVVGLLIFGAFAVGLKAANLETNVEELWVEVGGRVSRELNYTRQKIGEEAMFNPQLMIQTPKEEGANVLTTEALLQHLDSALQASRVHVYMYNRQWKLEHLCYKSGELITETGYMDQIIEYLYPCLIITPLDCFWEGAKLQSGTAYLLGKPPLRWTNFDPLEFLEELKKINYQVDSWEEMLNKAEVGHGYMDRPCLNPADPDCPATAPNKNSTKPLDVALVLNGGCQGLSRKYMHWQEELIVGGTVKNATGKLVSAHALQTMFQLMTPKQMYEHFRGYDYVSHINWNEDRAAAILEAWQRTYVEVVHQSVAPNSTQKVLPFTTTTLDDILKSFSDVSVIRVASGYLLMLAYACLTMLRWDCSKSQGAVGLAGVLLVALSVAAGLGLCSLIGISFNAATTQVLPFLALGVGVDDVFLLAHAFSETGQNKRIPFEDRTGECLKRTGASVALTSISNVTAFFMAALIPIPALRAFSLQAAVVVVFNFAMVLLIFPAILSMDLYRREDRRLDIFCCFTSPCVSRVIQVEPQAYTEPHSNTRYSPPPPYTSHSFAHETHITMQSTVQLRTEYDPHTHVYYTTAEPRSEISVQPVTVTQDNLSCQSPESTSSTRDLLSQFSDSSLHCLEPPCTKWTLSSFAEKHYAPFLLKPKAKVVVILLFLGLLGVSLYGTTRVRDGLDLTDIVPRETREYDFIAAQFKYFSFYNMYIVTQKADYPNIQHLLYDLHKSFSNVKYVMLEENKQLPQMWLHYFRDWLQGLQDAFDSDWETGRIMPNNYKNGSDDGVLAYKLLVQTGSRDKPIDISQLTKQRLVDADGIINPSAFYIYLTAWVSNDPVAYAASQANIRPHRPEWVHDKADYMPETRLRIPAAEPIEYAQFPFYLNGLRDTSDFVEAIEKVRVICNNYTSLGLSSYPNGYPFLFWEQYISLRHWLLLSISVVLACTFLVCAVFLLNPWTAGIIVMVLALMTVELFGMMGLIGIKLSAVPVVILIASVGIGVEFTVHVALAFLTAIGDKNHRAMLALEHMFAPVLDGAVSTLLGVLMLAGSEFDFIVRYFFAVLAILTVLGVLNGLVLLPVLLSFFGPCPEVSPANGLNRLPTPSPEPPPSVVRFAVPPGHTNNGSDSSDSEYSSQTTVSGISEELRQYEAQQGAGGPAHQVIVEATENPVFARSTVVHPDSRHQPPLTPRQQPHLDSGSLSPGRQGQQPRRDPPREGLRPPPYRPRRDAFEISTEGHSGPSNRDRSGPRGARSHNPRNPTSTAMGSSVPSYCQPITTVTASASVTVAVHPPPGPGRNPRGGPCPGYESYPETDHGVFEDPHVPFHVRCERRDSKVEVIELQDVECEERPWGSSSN
As to the kind of experiment: UV photocrosslinking in intact cells, immunoprecipitation and click-biotin detection. Type of test: cell-based. The source says:
UV photocrosslinking in intact cells, immunoprecipitation and click-biotin detection on PTCH1 (Patched 1) | PTCH1 itself could be photolabeled by 6-azi-20(S)-yne. Labeling of PTCH1 by 6-azi-20(S)-yne was diminished by SHH

Test [2] has as its target T2, hSMOΔC (Homo sapiens, UniProt Q99835).
T2 construct: Smoothened (SMO), human, UniProt Q99835, amino acid residues 32 to 555, lacks the disordered C-terminal cytoplasmic tail; Purified in detergent (GDN/CHS); Cloned into pHR-CMV-TetO2 (Addgene plasmid no. 113883) with a 3C-protease cleavable mVenus-1D4 tag; called nonfluorescent in the FSEC assay; also called human Smoothened lacking its C-terminal cytoplasmic tail; hSMO∆C; not shown: HA, …
Nature of the test: SEC; fluorescence-detection size exclusion chromatography (FSEC); purified hSMOΔC variants and Nb8-mVenus incubated 1 hour in 200 μl, no added ligands; Superose 6 Increase 3.2/300 in 10 mM Hepes pH 7.5, 150 mM NaCl, 0.02% GDN, 0.002% CHS; mVenus fluorescence followed. The note with it: both partners purified. (SEC sorts molecules by how far they enter the pores of the column.)

For test [3], the target named is T3, hSMOΔC-ΔCRD (Homo sapiens, UniProt Q99835).
T3 construct: Smoothened (SMO), human, UniProt Q99835, amino acid residues 190 to 555, lacks the cysteine-rich domain and the C-terminal cytoplasmic tail; Purified in detergent (GDN/CHS); also called hSMOΔC lacking the CRD; not shown: mVenus, C-terminal, cleaved; 1D4, C-terminal, cleaved
T3 sequence (Q99835 190-555, stated change not applied): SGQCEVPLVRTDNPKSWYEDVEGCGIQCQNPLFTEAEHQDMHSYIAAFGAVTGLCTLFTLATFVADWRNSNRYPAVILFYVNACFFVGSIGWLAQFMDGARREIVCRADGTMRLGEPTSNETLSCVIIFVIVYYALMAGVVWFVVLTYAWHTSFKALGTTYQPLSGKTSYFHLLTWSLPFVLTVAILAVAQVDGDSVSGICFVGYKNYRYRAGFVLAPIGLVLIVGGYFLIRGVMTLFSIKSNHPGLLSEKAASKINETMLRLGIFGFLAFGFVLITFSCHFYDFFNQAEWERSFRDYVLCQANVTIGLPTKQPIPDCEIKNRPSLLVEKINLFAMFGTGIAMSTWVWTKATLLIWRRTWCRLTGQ
Described as above. Particulars: both partners purified.

T2 sequence (Q99835 32-555, stated change not applied): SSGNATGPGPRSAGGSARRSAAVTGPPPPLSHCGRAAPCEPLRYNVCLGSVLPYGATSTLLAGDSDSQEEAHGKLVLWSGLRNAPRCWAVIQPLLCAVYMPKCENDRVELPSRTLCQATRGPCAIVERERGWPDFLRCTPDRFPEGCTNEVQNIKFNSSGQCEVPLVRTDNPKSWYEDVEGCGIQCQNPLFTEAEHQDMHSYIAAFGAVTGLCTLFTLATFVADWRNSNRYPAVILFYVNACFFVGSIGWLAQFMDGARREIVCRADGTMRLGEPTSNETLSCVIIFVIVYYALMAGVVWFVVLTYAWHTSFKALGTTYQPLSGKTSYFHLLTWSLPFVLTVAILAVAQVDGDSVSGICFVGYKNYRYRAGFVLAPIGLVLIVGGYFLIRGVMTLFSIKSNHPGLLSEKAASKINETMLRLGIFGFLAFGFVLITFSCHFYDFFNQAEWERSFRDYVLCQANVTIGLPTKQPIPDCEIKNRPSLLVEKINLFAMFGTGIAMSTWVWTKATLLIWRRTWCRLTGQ

Consider `C#CCC[C@](C)(O)[C@H]1CC[C@H]2[C@@H]3CC4(N=N4)[C@H]4C[C@@H](O)CC[C@]4(C)[C@H]3CC[C@@]21C` [6-azi-20(S)-yne], for which the “UV photocrosslinking in intact cells, immunoprecipitation and click-biotin detec” value in test [1] is “PTCH1 itself could be photolabeled by 6-azi-20(S)-yne. Labeling of PTCH1 by 6-azi-20(S)-yne was diminished by SHH”.

B1: Nb8-mVenus (VHH)
VHH: QVQLQESGGGLVQAGGSLRLSCAASGYIFSSYAMGWYRQAPGKEREFVATIGWGTITYYADSVKGRFTISRDNAKNTVYLQMNSLKPEDTAVYYCAAQDLLYYSFPGDHAYWGQGTQVTVSS
notes: Fused at its C terminus to a HRV3C-mVenus-12His fragment (HRV3C protease site between Nb8 and mVenus); the only Nb8 construct described is this one; also called active-conformation specific nanobody Nb8; active-state selective Nb8; not shown: mVenus, C-terminal, kept; 12His, C-terminal, kept
On to B1, for which the binding result in test [2] and in test [3] was “binds” throughout.
